Results published in publication PMC5923107 (Antimicrobial Agents and Chemotherapy, 2018).

How the values were obtained:
Assay in all cases: ELISA
Settings in all cases: both partners purified
[1] = target: T1, hemagglutinin (HA) of influenza B virus B/Brisbane/60/2008 (Victoria lineage) (Influenza B virus B/Brisbane/60/2008, UniProt C0LT35, strain)
T1 construct: also called B/Brisbane/60/2008 HA; source: bought: Immune Tech

[2] = target: T2, hemagglutinin (HA) of influenza B virus B/Malaysia/2506/2004 (Victoria lineage) (Influenza B virus B/Malaysia/2506/2004; …, UniProt C0LT35, strain)
T2 construct: also called B/Malaysia/2506/2004 HA; source: bought: Protein Sciences

[3] = target: T3, hemagglutinin (HA) of influenza B virus B/Victoria/2/1987 (Victoria lineage) (Influenza B virus B/Victoria/2/1987, UniProt P22092, strain)
T3 construct: also called B/Victoria/2/1987 HA; source: bought: Immune Tech

[4] = target: T4, hemagglutinin (HA) of influenza B virus B/Florida/04/2006 (Yamagata lineage) (Influenza B virus B/Florida/4/2006, UniProt E1TVD5, strain)
T4 construct: also called B/Florida/4/2006 HA; HA of B/Florida/04/2006; source: bought: Sino Biological

Measured: binding result

B1: TRL847 (antibody, V domains shown)
VH: QVQLVESGGGLVQPGGSLRLSCVASGFTFSRFSMNWVRQAPGMGLEWVSYISDTGRTIYYADSVKGRFTISRDNDKNTLYLQMKSLRDEDSAFYYCARDPDTPFVRAFDSWGQGVLVTVSS
VL: DIVMTQSPSFLSASVGDRVTITCRTSQVISSYLAWYQQRPGKAPKLLIYAASTLQSGVPSRFSGSGSGTRFSLTISNLQPEDFATYFCQQLTTYPPITFGQGTRLEIK
notes: also called MAb TRL847
binds: all assays above

B2: TRL848 (antibody, V domains shown)
VH: QVQLLESGGDVVQPGTSLRLSCAASGFSLWTSGMHWVRQAPGKGLEWVAVMSYDETKKYYADSVRGRFSISRDNSRNTLYLQMNSLRVEDTAVYFCAKPRLDYLDYFHAADSWGQGTLVSVSS
VL: DIVLTQPPSVSVAPGQTATITCGGNYIGSKSVNWYQQRPGHAPVLVVYDDSDRPSGIPDRFSGSNSRSTATTATLTISRVEAGDEADYYCQVWETSEDLWVFGGGTKLTVL
notes: also called MAb TRL848
binds: all assays above

B3: TRL854 (antibody, V domains shown)
VH: QVQLVESGAEVKKPGASVRVSCKGSGYTFTAYHMHWVRQAPGQGFEWVGWINPNSGATYYTSTFEGRVTMTRDTSITTAYMELSSLRSDDTAVYYCATDIVVERDASLGGFNSYGMDVWGQGTTVTVSS
VL: DIEMTQSPLSLPVTPGEPASISCRSSQSLLHSNGYNHLAWYLQKPGRSPHLLIYLASTRASGVPDRFSGSGSGTDFTLKISRVEAEDVGIYYCMQSLQTSITFGQGTRLEIK
notes: also called MAb TRL854
binds: all assays above

B4: TRL849 (antibody, V domains shown)
VH: QVQLVESGPGLVKPSQTLSLTCTVSGGSISNGGYHWSWIRQHPGKGLEWIGNIYYRGSTFYDPSLKSRVTISVDTSKSQFSLKLTSVTAADTAVYYCARMPLANYDLLTGLYIGAFDLWGQGTMVTVSS
VL: DIVLTQSPATLSVSPGERATLSCRASQSVNRNLAWFQQIPGQAPRLLIFDASTRAADIPARFSGGGSGAEFTLTVSSLQPEDFAVYYCQQYDKWPPGFGQGTKVEIK
notes: also called MAb TRL849
binds: [1] | [2] | [3]

B5: TRL845 (antibody, V domains shown)
VH: QVQLVQSGGDLVQPGGSLRLSCAASGFTFSRYSMNWVRQAPGMGLEWVAYISDTSRTIYYADSVKGRFTISRDNAKNSLYLQMKSLRDEDTAVYYCARDPDTPFVRAFDSWGQGTLVTVSS
VL: DIVLTQSPSFLSASVGDRVTITCRASQLISSYFAWYQQKPGKPPKLLIYAASTLQSGVPSRFSGSGSGTQFSLTISSLQPEDFATYYCQQLNSYPPITFGQGTRLEIK
notes: also called MAb TRL845
binds: [1] | [2] | [3]
